The source of these data is patent publication US20230025732A1 (INNATE PHARMA, published 2023).

Where a chain is given by its changes, count along the chain named.

The target of assay [1] is T1, Human CD39-L2, also known as NTPDase6 or ENTPD6 (human, UniProt O75354 61-484, limits assumed).
T1 construct: Recombinant protein coated in ELISA
T1 sequence: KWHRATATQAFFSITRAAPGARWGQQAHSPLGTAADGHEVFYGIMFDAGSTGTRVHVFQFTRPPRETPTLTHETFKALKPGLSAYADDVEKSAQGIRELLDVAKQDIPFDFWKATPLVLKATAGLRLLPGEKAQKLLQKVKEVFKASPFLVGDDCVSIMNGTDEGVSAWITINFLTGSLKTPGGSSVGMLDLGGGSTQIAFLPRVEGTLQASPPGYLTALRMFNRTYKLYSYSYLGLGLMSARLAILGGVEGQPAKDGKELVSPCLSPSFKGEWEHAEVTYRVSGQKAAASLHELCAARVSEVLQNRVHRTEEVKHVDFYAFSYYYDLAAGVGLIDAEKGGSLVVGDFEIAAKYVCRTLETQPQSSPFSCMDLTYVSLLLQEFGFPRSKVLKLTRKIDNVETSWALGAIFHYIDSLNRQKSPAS
Put plainly: ELISA on coated recombinant human CD39-L2, panel huCD39 L2; no legend on the sheet, curve is I-394 by paragraph 85. On the procedure: (§1) Wells were washed in TBS Tween 20, and further saturated 2H at RT in TBS Blocking buffer. Dose range concentration of primary antibody was incubated in TBS blocking buffer for 2 h at RT. Wells were washed in TBS Tween 20. […] Optical density was measured on Enspire™ at OD=450.

Assay [2] has as its target T2, human CD39 expressed at the cell surface (human, UniProt P49961 1-510).
T2 construct: On CHO transfectants, Hek-293T transfectants, Ramos and Mino tumor cells; also called huCD39; CHO-huCD39
T2 sequence: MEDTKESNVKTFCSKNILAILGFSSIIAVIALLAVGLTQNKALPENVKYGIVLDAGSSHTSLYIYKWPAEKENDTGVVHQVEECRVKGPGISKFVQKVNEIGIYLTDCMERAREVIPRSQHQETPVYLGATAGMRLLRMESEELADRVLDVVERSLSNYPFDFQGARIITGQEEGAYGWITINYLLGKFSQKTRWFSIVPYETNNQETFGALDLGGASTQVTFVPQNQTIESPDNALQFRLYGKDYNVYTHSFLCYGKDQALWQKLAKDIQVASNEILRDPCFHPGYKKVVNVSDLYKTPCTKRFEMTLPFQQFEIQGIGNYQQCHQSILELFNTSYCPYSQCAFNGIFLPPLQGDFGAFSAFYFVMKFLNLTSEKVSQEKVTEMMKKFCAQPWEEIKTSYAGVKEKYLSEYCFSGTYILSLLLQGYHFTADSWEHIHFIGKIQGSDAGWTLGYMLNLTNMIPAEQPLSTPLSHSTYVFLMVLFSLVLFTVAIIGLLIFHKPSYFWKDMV
The assay can be described thus: flow cytometry titration on Ramos lymphoma cells (Mean of Fluorescence), panels L0, L1 and L1*. A general note: In flow cytometry, cells or beads pass a laser one at a time.

Assay [3] has as its target T2, human CD39 expressed at the cell surface. Put plainly: flow cytometry titration on CHO cells expressing human CD39 (Mediane of Fluo), panel CHO-huCD39. The procedure:
Cells were incubated with various concentration of unlabeled anti-CD39 antibody from 30 μg/ml to 5×10⁻⁴ μg/ml, for 30 minutes at 4° C. After washes, cells were incubated with Goat anti-mouse H+L labeled secondary antibody for 30 min at 4° C.

In the next assay the target is T3, CD39 mutant 19 (human, UniProt P49961 1-510).
T3 construct: expressed on Hek-293T cells; also called M19
T3 chain: T2 sequence with R138A, M139A, E142K
The assay can be described thus: flow cytometry on Hek-293T cells transfected with CD39 mutant 19 (panel M19); antibody concentration not given on the sheet. The source says: Mutants were transfected in Hek-293T cells, as shown in the table 1, using numbering of SEQ ID NO: 1. […] Mutant 19 includes substitutions at residues R138, M139 and E142.

For assay [4], the target named is T4, Human CD39-L4, also known as NTPDase5 or ENTPD5 (human, UniProt O75356 25-428).
T4 construct: Recombinant protein coated in ELISA
T4 sequence: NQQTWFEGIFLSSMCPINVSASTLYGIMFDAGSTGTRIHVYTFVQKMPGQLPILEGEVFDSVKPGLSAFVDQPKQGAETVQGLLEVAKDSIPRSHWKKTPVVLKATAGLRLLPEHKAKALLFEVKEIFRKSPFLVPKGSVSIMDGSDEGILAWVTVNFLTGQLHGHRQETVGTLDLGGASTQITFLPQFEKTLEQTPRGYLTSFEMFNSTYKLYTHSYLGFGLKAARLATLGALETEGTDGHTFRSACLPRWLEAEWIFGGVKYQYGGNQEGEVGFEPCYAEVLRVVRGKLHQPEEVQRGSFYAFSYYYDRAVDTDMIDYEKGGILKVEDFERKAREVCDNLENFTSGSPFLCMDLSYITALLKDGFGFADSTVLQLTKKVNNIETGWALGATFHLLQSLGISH
Put plainly: ELISA on coated recombinant human CD39-L4, panel huCD39 L4; no legend on the sheet, curve is I-394 by paragraph 85. On the procedure: as §1

B1: I-394 (antibody, human IgG1, V domains shown)
VH: EVQLQQSGPELVKPGASVKMSCKASGYTFTDYNMHWVKQSHGRTLEWIGYIVPLNGGSTFNQKFKGRATLTVNTSSRTAYMELRSLTSEDSAAYYCARGGTRFAYWGQGTLVTVSA
VL: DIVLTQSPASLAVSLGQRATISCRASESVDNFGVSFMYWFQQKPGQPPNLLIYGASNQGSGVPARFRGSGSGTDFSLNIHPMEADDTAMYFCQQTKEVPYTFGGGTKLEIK
As a reminder, the EC50 (read off the curve) is the midpoint of the concentration-response curve. A higher EC50 (read off the curve) goes with a need for much substance. For B1, the results for the binding result (in assay [1]; with CD39 mutant 19; in assay [4]) were “no binding (tested: about 50 µg/ml)”, “no binding” and “no binding (tested: about 50 µg/ml)”, respectively. The concentration giving a half-maximal response (EC50 (read off the curve)) in assay [2] is ~0.5 mg/L; in assay [3], ~0.2 mg/L.
